# Test results reported in patent publication US20210388087A1 (Chugai, published 2021).
# Molecular target: T1, Human CD3eg linker (human)
# T1 construct: Single chain: epsilon and gamma subunits of human CD3 joined by a 29-mer linker, Flag-tag at the C-terminus; also called recombinant human CD3
# T1 chain: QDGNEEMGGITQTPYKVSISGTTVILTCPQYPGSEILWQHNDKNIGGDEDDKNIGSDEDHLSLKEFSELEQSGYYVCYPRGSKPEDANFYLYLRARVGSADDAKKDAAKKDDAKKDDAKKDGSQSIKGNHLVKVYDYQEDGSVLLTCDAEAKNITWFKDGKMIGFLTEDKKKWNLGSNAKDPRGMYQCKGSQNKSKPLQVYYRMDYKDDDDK
# Experiment: Biacore SPR, vs template H183/L072
row,Binder,fold change of affinity [fold]
1,"H183/L072 VH A54H (antibody, name in Kabat numbering, V domains shown) VH: QVQLVESGGGLVQPGRSLRLSCAASGFTFSNAWMHWVRQAPGKGLEWVAQIKDKGNHYAAYYAPSVKGRFTISRDDSKNSIYLQMNSLKTEDTAVYYCHYVHYASASTVLPAFGVDAWGQGTTVTVSS VL: DIVMTQSPLSLPVTPGEPASISCQASQELVHMNRNTYLHWYQQKPGQAPRLLIYKVSNRFPGVPDRFSGSGSGTDFTLKISRVEAEDVGVYYCAQGTSVPFTFGQGTKLEIK",1.1
2,"H183/L072 VH A54S (antibody, name in Kabat numbering, V domains shown) VH: QVQLVESGGGLVQPGRSLRLSCAASGFTFSNAWMHWVRQAPGKGLEWVAQIKDKGNSYAAYYAPSVKGRFTISRDDSKNSIYLQMNSLKTEDTAVYYCHYVHYASASTVLPAFGVDAWGQGTTVTVSS VL: DIVMTQSPLSLPVTPGEPASISCQASQELVHMNRNTYLHWYQQKPGQAPRLLIYKVSNRFPGVPDRFSGSGSGTDFTLKISRVEAEDVGVYYCAQGTSVPFTFGQGTKLEIK",1
3,"H183/L072 VH A54R (antibody, name in Kabat numbering, V domains shown) VH: QVQLVESGGGLVQPGRSLRLSCAASGFTFSNAWMHWVRQAPGKGLEWVAQIKDKGNRYAAYYAPSVKGRFTISRDDSKNSIYLQMNSLKTEDTAVYYCHYVHYASASTVLPAFGVDAWGQGTTVTVSS VL: DIVMTQSPLSLPVTPGEPASISCQASQELVHMNRNTYLHWYQQKPGQAPRLLIYKVSNRFPGVPDRFSGSGSGTDFTLKISRVEAEDVGVYYCAQGTSVPFTFGQGTKLEIK",1.1
4,"H183/L072 VH A54T (antibody, name in Kabat numbering, V domains shown) VH: QVQLVESGGGLVQPGRSLRLSCAASGFTFSNAWMHWVRQAPGKGLEWVAQIKDKGNTYAAYYAPSVKGRFTISRDDSKNSIYLQMNSLKTEDTAVYYCHYVHYASASTVLPAFGVDAWGQGTTVTVSS VL: DIVMTQSPLSLPVTPGEPASISCQASQELVHMNRNTYLHWYQQKPGQAPRLLIYKVSNRFPGVPDRFSGSGSGTDFTLKISRVEAEDVGVYYCAQGTSVPFTFGQGTKLEIK",0.9
5,"H183/L072 VH A54I (antibody, name in Kabat numbering, V domains shown) VH: QVQLVESGGGLVQPGRSLRLSCAASGFTFSNAWMHWVRQAPGKGLEWVAQIKDKGNIYAAYYAPSVKGRFTISRDDSKNSIYLQMNSLKTEDTAVYYCHYVHYASASTVLPAFGVDAWGQGTTVTVSS VL: DIVMTQSPLSLPVTPGEPASISCQASQELVHMNRNTYLHWYQQKPGQAPRLLIYKVSNRFPGVPDRFSGSGSGTDFTLKISRVEAEDVGVYYCAQGTSVPFTFGQGTKLEIK",0.7
6,"H183/L072 VH A56D (antibody, name in Kabat numbering, V domains shown) VH: QVQLVESGGGLVQPGRSLRLSCAASGFTFSNAWMHWVRQAPGKGLEWVAQIKDKGNAYDAYYAPSVKGRFTISRDDSKNSIYLQMNSLKTEDTAVYYCHYVHYASASTVLPAFGVDAWGQGTTVTVSS VL: DIVMTQSPLSLPVTPGEPASISCQASQELVHMNRNTYLHWYQQKPGQAPRLLIYKVSNRFPGVPDRFSGSGSGTDFTLKISRVEAEDVGVYYCAQGTSVPFTFGQGTKLEIK",0.5
7,"H183/L072 VH A54N (antibody, name in Kabat numbering, V domains shown) VH: QVQLVESGGGLVQPGRSLRLSCAASGFTFSNAWMHWVRQAPGKGLEWVAQIKDKGNNYAAYYAPSVKGRFTISRDDSKNSIYLQMNSLKTEDTAVYYCHYVHYASASTVLPAFGVDAWGQGTTVTVSS VL: DIVMTQSPLSLPVTPGEPASISCQASQELVHMNRNTYLHWYQQKPGQAPRLLIYKVSNRFPGVPDRFSGSGSGTDFTLKISRVEAEDVGVYYCAQGTSVPFTFGQGTKLEIK",1.1
8,"H183/L072 VH A56F (antibody, name in Kabat numbering, V domains shown) VH: QVQLVESGGGLVQPGRSLRLSCAASGFTFSNAWMHWVRQAPGKGLEWVAQIKDKGNAYFAYYAPSVKGRFTISRDDSKNSIYLQMNSLKTEDTAVYYCHYVHYASASTVLPAFGVDAWGQGTTVTVSS VL: DIVMTQSPLSLPVTPGEPASISCQASQELVHMNRNTYLHWYQQKPGQAPRLLIYKVSNRFPGVPDRFSGSGSGTDFTLKISRVEAEDVGVYYCAQGTSVPFTFGQGTKLEIK",0.6
9,"H183/L072 VH A54W (antibody, name in Kabat numbering, V domains shown) VH: QVQLVESGGGLVQPGRSLRLSCAASGFTFSNAWMHWVRQAPGKGLEWVAQIKDKGNWYAAYYAPSVKGRFTISRDDSKNSIYLQMNSLKTEDTAVYYCHYVHYASASTVLPAFGVDAWGQGTTVTVSS VL: DIVMTQSPLSLPVTPGEPASISCQASQELVHMNRNTYLHWYQQKPGQAPRLLIYKVSNRFPGVPDRFSGSGSGTDFTLKISRVEAEDVGVYYCAQGTSVPFTFGQGTKLEIK",1.1
10,"H183/L072 VH A54P (antibody, name in Kabat numbering, V domains shown) VH: QVQLVESGGGLVQPGRSLRLSCAASGFTFSNAWMHWVRQAPGKGLEWVAQIKDKGNPYAAYYAPSVKGRFTISRDDSKNSIYLQMNSLKTEDTAVYYCHYVHYASASTVLPAFGVDAWGQGTTVTVSS VL: DIVMTQSPLSLPVTPGEPASISCQASQELVHMNRNTYLHWYQQKPGQAPRLLIYKVSNRFPGVPDRFSGSGSGTDFTLKISRVEAEDVGVYYCAQGTSVPFTFGQGTKLEIK",0
11,"H183/L072 VH A54L (antibody, name in Kabat numbering, V domains shown) VH: QVQLVESGGGLVQPGRSLRLSCAASGFTFSNAWMHWVRQAPGKGLEWVAQIKDKGNLYAAYYAPSVKGRFTISRDDSKNSIYLQMNSLKTEDTAVYYCHYVHYASASTVLPAFGVDAWGQGTTVTVSS VL: DIVMTQSPLSLPVTPGEPASISCQASQELVHMNRNTYLHWYQQKPGQAPRLLIYKVSNRFPGVPDRFSGSGSGTDFTLKISRVEAEDVGVYYCAQGTSVPFTFGQGTKLEIK",1.1
12,"H183/L072 VH A54Q (antibody, name in Kabat numbering, V domains shown) VH: QVQLVESGGGLVQPGRSLRLSCAASGFTFSNAWMHWVRQAPGKGLEWVAQIKDKGNQYAAYYAPSVKGRFTISRDDSKNSIYLQMNSLKTEDTAVYYCHYVHYASASTVLPAFGVDAWGQGTTVTVSS VL: DIVMTQSPLSLPVTPGEPASISCQASQELVHMNRNTYLHWYQQKPGQAPRLLIYKVSNRFPGVPDRFSGSGSGTDFTLKISRVEAEDVGVYYCAQGTSVPFTFGQGTKLEIK",1.1
13,"H183/L072 VH A56H (antibody, name in Kabat numbering, V domains shown) VH: QVQLVESGGGLVQPGRSLRLSCAASGFTFSNAWMHWVRQAPGKGLEWVAQIKDKGNAYHAYYAPSVKGRFTISRDDSKNSIYLQMNSLKTEDTAVYYCHYVHYASASTVLPAFGVDAWGQGTTVTVSS VL: DIVMTQSPLSLPVTPGEPASISCQASQELVHMNRNTYLHWYQQKPGQAPRLLIYKVSNRFPGVPDRFSGSGSGTDFTLKISRVEAEDVGVYYCAQGTSVPFTFGQGTKLEIK",0.9
14,"H183/L072 VH A54V (antibody, name in Kabat numbering, V domains shown) VH: QVQLVESGGGLVQPGRSLRLSCAASGFTFSNAWMHWVRQAPGKGLEWVAQIKDKGNVYAAYYAPSVKGRFTISRDDSKNSIYLQMNSLKTEDTAVYYCHYVHYASASTVLPAFGVDAWGQGTTVTVSS VL: DIVMTQSPLSLPVTPGEPASISCQASQELVHMNRNTYLHWYQQKPGQAPRLLIYKVSNRFPGVPDRFSGSGSGTDFTLKISRVEAEDVGVYYCAQGTSVPFTFGQGTKLEIK",0.7
15,"H183/L072 VH A56I (antibody, name in Kabat numbering, V domains shown) VH: QVQLVESGGGLVQPGRSLRLSCAASGFTFSNAWMHWVRQAPGKGLEWVAQIKDKGNAYIAYYAPSVKGRFTISRDDSKNSIYLQMNSLKTEDTAVYYCHYVHYASASTVLPAFGVDAWGQGTTVTVSS VL: DIVMTQSPLSLPVTPGEPASISCQASQELVHMNRNTYLHWYQQKPGQAPRLLIYKVSNRFPGVPDRFSGSGSGTDFTLKISRVEAEDVGVYYCAQGTSVPFTFGQGTKLEIK",0.6
16,"H183/L072 VH A54K (antibody, name in Kabat numbering, V domains shown) VH: QVQLVESGGGLVQPGRSLRLSCAASGFTFSNAWMHWVRQAPGKGLEWVAQIKDKGNKYAAYYAPSVKGRFTISRDDSKNSIYLQMNSLKTEDTAVYYCHYVHYASASTVLPAFGVDAWGQGTTVTVSS VL: DIVMTQSPLSLPVTPGEPASISCQASQELVHMNRNTYLHWYQQKPGQAPRLLIYKVSNRFPGVPDRFSGSGSGTDFTLKISRVEAEDVGVYYCAQGTSVPFTFGQGTKLEIK",1.1
17,"H183/L072 VH A56E (antibody, name in Kabat numbering, V domains shown) VH: QVQLVESGGGLVQPGRSLRLSCAASGFTFSNAWMHWVRQAPGKGLEWVAQIKDKGNAYEAYYAPSVKGRFTISRDDSKNSIYLQMNSLKTEDTAVYYCHYVHYASASTVLPAFGVDAWGQGTTVTVSS VL: DIVMTQSPLSLPVTPGEPASISCQASQELVHMNRNTYLHWYQQKPGQAPRLLIYKVSNRFPGVPDRFSGSGSGTDFTLKISRVEAEDVGVYYCAQGTSVPFTFGQGTKLEIK",0.6
18,"H183/L072 VH A54Y (antibody, name in Kabat numbering, V domains shown) VH: QVQLVESGGGLVQPGRSLRLSCAASGFTFSNAWMHWVRQAPGKGLEWVAQIKDKGNYYAAYYAPSVKGRFTISRDDSKNSIYLQMNSLKTEDTAVYYCHYVHYASASTVLPAFGVDAWGQGTTVTVSS VL: DIVMTQSPLSLPVTPGEPASISCQASQELVHMNRNTYLHWYQQKPGQAPRLLIYKVSNRFPGVPDRFSGSGSGTDFTLKISRVEAEDVGVYYCAQGTSVPFTFGQGTKLEIK",1
19,"H183/L072 VH A54M (antibody, name in Kabat numbering, V domains shown) VH: QVQLVESGGGLVQPGRSLRLSCAASGFTFSNAWMHWVRQAPGKGLEWVAQIKDKGNMYAAYYAPSVKGRFTISRDDSKNSIYLQMNSLKTEDTAVYYCHYVHYASASTVLPAFGVDAWGQGTTVTVSS VL: DIVMTQSPLSLPVTPGEPASISCQASQELVHMNRNTYLHWYQQKPGQAPRLLIYKVSNRFPGVPDRFSGSGSGTDFTLKISRVEAEDVGVYYCAQGTSVPFTFGQGTKLEIK",1
20,"H183/L072 VH A56G (antibody, name in Kabat numbering, V domains shown) VH: QVQLVESGGGLVQPGRSLRLSCAASGFTFSNAWMHWVRQAPGKGLEWVAQIKDKGNAYGAYYAPSVKGRFTISRDDSKNSIYLQMNSLKTEDTAVYYCHYVHYASASTVLPAFGVDAWGQGTTVTVSS VL: DIVMTQSPLSLPVTPGEPASISCQASQELVHMNRNTYLHWYQQKPGQAPRLLIYKVSNRFPGVPDRFSGSGSGTDFTLKISRVEAEDVGVYYCAQGTSVPFTFGQGTKLEIK",0.7
